Consider two molecules from patent US20210403591A1.

For assay [1], the target named is mTfR-1 S255A on Expi293 cells (mouse) (UniProt Q62351). In words: FACS, transfected Expi293 cells. On the technique in general: In flow cytometry, cells or beads pass a laser one at a time.
Assay [2] deals with mTfR-1 N253A on Expi293 cells (mouse) (UniProt Q62351). The assay is described as follows: FACS, transfected Expi293 cells.
In assay [3] the target is mTfR-1 L256A on Expi293 cells (mouse) (UniProt Q62351). In words: FACS, transfected Expi293 cells; mutant poorly expressed.
Sequence of mTfR-1 L256A on Expi293 cells (mouse) (Q62351 whole entry L256A): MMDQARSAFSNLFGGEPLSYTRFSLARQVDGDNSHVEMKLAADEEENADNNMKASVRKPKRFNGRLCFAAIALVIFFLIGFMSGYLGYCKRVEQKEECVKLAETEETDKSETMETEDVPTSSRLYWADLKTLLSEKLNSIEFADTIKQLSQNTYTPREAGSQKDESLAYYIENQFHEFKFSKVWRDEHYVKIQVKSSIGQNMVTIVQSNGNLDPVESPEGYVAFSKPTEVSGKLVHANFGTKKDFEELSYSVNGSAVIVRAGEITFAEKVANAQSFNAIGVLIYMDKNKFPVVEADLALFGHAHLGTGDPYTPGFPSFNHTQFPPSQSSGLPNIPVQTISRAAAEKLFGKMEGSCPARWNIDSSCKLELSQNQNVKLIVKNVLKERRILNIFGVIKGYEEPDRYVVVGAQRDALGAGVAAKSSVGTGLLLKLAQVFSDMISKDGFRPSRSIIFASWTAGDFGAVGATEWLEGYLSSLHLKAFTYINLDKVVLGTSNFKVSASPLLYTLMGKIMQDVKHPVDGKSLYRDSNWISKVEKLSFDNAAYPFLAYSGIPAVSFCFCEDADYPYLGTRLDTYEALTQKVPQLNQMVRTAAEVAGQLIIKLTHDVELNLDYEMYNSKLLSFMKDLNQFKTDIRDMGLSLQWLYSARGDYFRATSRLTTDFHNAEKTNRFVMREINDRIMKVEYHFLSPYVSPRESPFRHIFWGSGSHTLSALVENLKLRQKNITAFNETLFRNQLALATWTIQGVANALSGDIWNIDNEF

Sequence of mTfR-1 N253A on Expi293 cells (mouse) (Q62351 whole entry N253A): as the sequence (Q62351 whole entry L256A) above, with N253A, A256L counted along it
Sequence of mTfR-1 S255A on Expi293 cells (mouse) (Q62351 whole entry S255A): as the sequence (Q62351 whole entry L256A) above, with S255A, A256L counted along it

B1: Clone C variant 13 VNAR-hFc (Fc fusion, not shown: a dimerising Fc or GST)
chain: ARVDQTPQTITKETGESLTINCVLRDSNCALSSTYWYRKKSGSTNEENISKGGRYVETVNSGSKSFSLRINDLTVEDSGTYRCNVVQYPQQDNYFWCDVYGDGTAVTVN
For B1, the % double-positive cells vs WT in assay [1] was 19%; in assay [2], 27%.

B2: Clone C VNAR-hFc fusion (Fc fusion, not shown: a dimerising Fc or GST)
chain: ARVDQTPQTITKETGESLTINCVLRDSNCALSSTYWYRKKSGSTNEENISKGGRYVETVNSGSKSFSLRINDLTVEDSGTYRCNVVQYPSYNNYFWCDVYGDGTAVTVN
As to B2, the % double-positive cells vs WT in assay [3] was 1%.
